Results as given in IntAct's records for PubMed 32433612.

Target: tasl_human TASL (UniProt Q9HAI6)

effect of a mutation on the interaction | Substance
disrupting interaction strength | Solute carrier family 15 member 4 (Homo sapiens), Q8N697 E465K
with no effect | Solute carrier family 15 member 4 (Homo sapiens), Q8N697 L14A;L15A

The next lines start with the substance.

Substance | effect of a mutation on the interaction
Solute carrier family 15 member 4 (Homo sapiens), Q8N697 E44A | with no effect
Solute carrier family 15 member 4 (Homo sapiens), Q8N697 E47A | with no effect
Solute carrier family 15 member 4 (Homo sapiens), Q8N697 E465A | disrupting interaction strength
